In patent publication US20150253335:

Experiments:
[1] = system: coumarin-PPant labeled FITC-ybbR conjugate
[2] = system: crypto-A. orientalis CepK labeled with coumarin-PPant
[3] = system: crypto-A. parasiticus PksA carrier protein labeled with coumarin-PPant
[4] = system: crypto-E. coli AcpP (type II FAS acyl carrier protein labeled with coumarin-PPant)
[5] = system: crypto-G. fujikuroi Pks4 carrier protein labeled with coumarin-PPant
[6] = system: crypto-L. majuscula JamC labeled with coumarin-PPant
[7] = system: crypto-L. majuscula JamF labeled with coumarin-PPant
[8] = system: crypto-M. tuberculosis AcpM (Type II) labeled with coumarin-PPant
[9] = system: crypto-MBP-PaAcpP (MBP fusion of P. aeruginosa AcpP labeled with coumarin-PPant)
[10] = system: crypto-P. agglomerans AdmA labeled with coumarin-PPant
[11] = system: crypto-P. agglomerans AdmI labeled with coumarin-PPant
[12] = system: crypto-P. falciparum apicoplast ACP (Type II) labeled with coumarin-PPant
[13] = system: crypto-P. fluorescens PltL labeled with coumarin-PPant
[14] = system: crypto-P. syringae SyrB1 labeled with coumarin-PPant
[15] = system: crypto-S. coelicolor ActACP labeled with coumarin-PPant
[16] = system: crypto-V. cholerae VibB labeled with coumarin-PPant
[17] = system: crypto-ybbR free peptide (coumarin-PPant labeled 11 amino acid ybbR)
[18] = system: crypto-ybbR-eGFP fusion with N-terminal 6xHis and C-terminal GFP (coumarin-PPant labeled)
[19] = system: crypto-ybbR-eGFP fusion with N-terminal GFP and C-terminal 6xHis (coumarin-PPant labeled)
[20] = system: holo-SoAcpP (S. oneidensis type II FAS AcpP)
[21] = system: crypto-FITC-ybbR (rhodamine WT PPant-labeled FITC-ybbR)
[22] = system: crypto-GFP-ACP (rhodamine-PPT labeled fusion of E. coli ACP with GFP)
[23] = system: crypto-Lux-ACP (rhodamine-PPT labeled fusion of bacterial luciferase with E. coli ACP)
[24] = system: crypto-MBP-PaACP (rhodamine-PPT labeled MBP fusion of P. aeruginosa ACP)

Substance | AcpH activity with modified ybbR peptide [1] | AcpH qualitative CP activity [2] | AcpH qualitative CP activity [3] | AcpH qualitative CP activity [4] | AcpH qualitative CP activity [5] | AcpH qualitative CP activity [6] | AcpH qualitative CP activity [7] | AcpH qualitative CP activity [8] | AcpH qualitative CP activity [9] | AcpH qualitative CP activity [10] | AcpH qualitative CP activity [11] | AcpH qualitative CP activity [12] | AcpH qualitative CP activity [13] | AcpH qualitative CP activity [14] | AcpH qualitative CP activity [15] | AcpH qualitative CP activity [16] | AcpH activity with modified ybbR peptide [17] | AcpH activity with modified ybbR peptide [18] | AcpH activity with modified ybbR peptide [19] | AcpH qualitative CP activity [20] | other results
annotated hypothetical AcpH homolog from Shewanella oneidensis MR-1 | no | no | no | no | no | no | no | no | no | no | no | no | no | no | no | no | no | no | no | no | Vmax (holo-E. coli AcpP): NC†
acyl carrier protein hydrolase (AcpH) from Pseudomonas aeruginosa PAO1 | no | no | YES | YES | no | YES | no | YES | YES | no | no | YES | YES | no | no | no | no | no | no | YES^† | Km [21]: 177 µM; Vmax [21]: 0.008 min⁻¹; kcat [21]: 0.000133 s⁻¹; kcat/KM [21]: 0.783 M⁻¹ s⁻¹; removal of rhodamine-PPT from ACP fusion protein [22]: AcpH removed rhodamine-PPT from ACP attached to three different fusion partners ... a C-terminal green fluorescent protein (GFP); removal of rhodamine-PPT from ACP fusion protein [23]: AcpH removed rhodamine-PPT from ACP attached to three different fusion partners ... an N-terminal bacterial luciferase fusion (Lux-ACP); removal of rhodamine-PPT from ACP fusion protein [24]: AcpH removed rhodamine-PPT from ACP attached to three different fusion partners, an N-terminal maltose binding protein (MBP); AcpH activity with NRPS-type peptidyl carrier proteins [13]: The observed partial activity resulted from PaAcpH with PltL; Km (holo-E. coli AcpP): 12 µM; Vmax (holo-E. coli AcpP): 0.59 min⁻¹; kcat (holo-E. coli AcpP): 0.00983 s⁻¹; kcat/KM (holo-E. coli AcpP): 817 M⁻¹ s⁻¹
acyl carrier protein hydrolase (AcpH) from Pseudomonas fluorescens NCIMB 10586 | YES | no | YES | YES | YES | YES | no | YES | YES | no | YES | YES | no | no | YES | no | YES | YES | YES | YES^† | Km [21]: 48 µM; Vmax [21]: 0.17 min⁻¹; kcat [21]: 0.00283 s⁻¹; kcat/KM [21]: 50 M⁻¹ s⁻¹
acyl carrier protein hydrolase (AcpH) from Cyanothece PCC 7822 | YES | no | YES | YES | no | YES | no | YES | YES | no | no | YES | no | no | no | no | YES | YES | YES | YES^† | Km [21]: 21 µM; Vmax [21]: 0.004 min⁻¹; kcat [21]: 6.67e-05 s⁻¹; kcat/KM [21]: 3.33 M⁻¹ s⁻¹; Km (holo-E. coli AcpP): 58 µM; Vmax (holo-E. coli AcpP): 1.1 min⁻¹; kcat (holo-E. coli AcpP): 3.52 s⁻¹; kcat/KM (holo-E. coli AcpP): 60000 M⁻¹ s⁻¹
